From paper PMC13174313 (bioRxiv, 2026)
Blank lines part the entries; values can stand above or below the molecule they belong to.

Key:
Assay in all cases: ITC
[1] = target: TII: Tctex1 homodimer with two IC chains bound (D. melanogaster) (UniProt Q94524)
[2] = target: T1, D. melanogaster dynein light chain Tctex1 (D. melanogaster, UniProt Q94524 1-111)
T1 sequence: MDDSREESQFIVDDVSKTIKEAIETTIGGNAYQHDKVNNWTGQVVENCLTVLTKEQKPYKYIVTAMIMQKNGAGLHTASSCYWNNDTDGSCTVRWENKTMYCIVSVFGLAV

[3] = target: D. melanogaster dynein light chain LC8 (D. melanogaster, UniProt Q24117 1-89)
Sequence of D. melanogaster dynein light chain LC8 (D. melanogaster, UniProt Q24117 1-89) (Q24117 whole entry): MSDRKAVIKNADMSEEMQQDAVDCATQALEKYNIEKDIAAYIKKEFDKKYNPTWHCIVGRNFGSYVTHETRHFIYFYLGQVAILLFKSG

- dH (TII -> TIILII) [1]: -25.8 kcal/mol
Molecule: D. melanogaster dynein light chain LC8 (from UniProt Q24117 1-89) (natural protein)

- dH, first IC on the Tctex1 dimer (TI) [2]: -6.76 kcal/mol
- dH, second IC on the Tctex1 dimer (TI to TII) [2]: -4.97 kcal/mol
- dH, first IC on the LC8 dimer (LI) [3]: -14.8 kcal/mol
- dH, second IC on the LC8 dimer (LI to LII) [3]: -15.1 kcal/mol
B1: D. melanogaster dynein intermediate chain ICTL (domain or fragment, UniProt Q24246 84-143, looked up)
chain: SNTQTPDASLQATVNGQSGGKKQPLNLSVYNVQATNIPPKETLVYTKQTQTTSTGGGNGD
